From patent US6855515B1, “Autoantigenic fragments, methods and assays” (Merck & Co., Inc., priority 1998, dated 2005)

Assays:
granzyme B = molecular target: T1, granzyme B (Homo sapiens, UniProt P10144); test: Susceptibility of autoantigens to cleavage by purified granzyme B (HeLa lysate immunoblot or immunoprecipitates); assay type: biochemical; details: in vitro
T1 construct: Some of these preparations were used for the further purification of granzyme B (Tschopp, 1994); endogenous in cells; host or cells: YT cells (human NK cell line), cytoplasmic granules
Method: To determine whether susceptibility to direct cleavage by granzyme B was an isolated feature of PARP, NuMA and DNA-PKcs shown above, or whether it was a more general feature of autoantigens, a variety of well-defined autoantigens selected from across the spectrum of systemic autoimmune diseases were tested for susceptibility to cleavage by purified granzyume B. The efficiency of cleavage of the substrates by purified granzyme B was also noted (Table 3). Initially, a series of autoantibodies of well-defined specificity were used to immunoblot lysates of HeLa cells that had been incubated in vitro with or without granzyme B. Lysates were pre-treated with iodoacetamide (IAA) to prevent interference by endogenous caspase activity.
To perform these studies, HeLa cells were radiolabeled with [^35S] methionine/cysteine, and proteins were immunoprecipitated using human autoantibodies. Protein A-agarose beads containing washed precipitated proteins were resuspended in buffer supporting the activity of granzyme B, and incubated in the absence or presence of added purified granzyme B. Reaction products were visualized using SDS-PAGE and fluorography. To confirm the validity of this approach, several different autoantigens known to be cleaved by granzyme B, as well as several autoantigens and non-autoantigens that are not cleaved by granzyme B, were tested. Using autoantibodies that both immunoblot and immunprecipitate, the cleavage profiles obtained using granzyme B to cleave molecules in lysates (followed by detection with immunoblotting), and after immunoprecipitation (from [^35S]methionine-labeled HeLa lysate) were compared. Identical results were obtained using these 2 methods for cleaved autoantigens (topoisomerase-1, Mi-2, RNA polymerase II large subunit, Ku-70, PARP, and NOR-90), uncleaved autoantigens (Ku-80, Ro 60k), and control substrates (β-tubulin, vinculin). […] Of note, all these additional autoantigens (with the exception of RNA polymerase I) are targeted in autoimmune myositis. However, two other tRNA synthetases (threonyl tRNA synthetase and glycyl tRNA synthetase) that are also autoantigens in autoimmune myositis, were not cleaved using this approach.

caspase-8 = caspase-8 (Homo sapiens, UniProt Q14790); test: Cleavage of substrates by purified caspase-8; assay type: biochemical; details: 50 nM purified caspase-8; HeLa lysates treated with iodoacetamide, or radiolabeled IvTT substrate
Method: To confirm that these substrates were not cleaved by group III caspases, the substrates were incubated with 50 nM purified caspase-8. Cleavage assays were performed in HeLa cell lysates in which endogenous caspases had first been irreversibly inactivated by 1 mM iodoacetamide (4° C. for 15 min), prior to addition of 5 mM DTT to facilitate exogenous caspase-8 activity. No cleavage of topoisomerase-1, Mi-2, U1-70 kDa, PARP, Ku-70, RNA polymerase II large subunit, SRP-72, NuMA or Ki-67 occurred. Caspase-8 was indeed active in these lysates, as evidenced by robust caspase-3 cleavage products of PARP and U1-70 kDa seen when the IAA ‘poisoning’ step was omitted. Radiolabeled PMS1 and PMS2 (generated by IvTT) were also not cleaved by purified caspase-8.

K562 cells = test: Substrate cleavage in intact K562 cells during YT cell granule content-induced cytotoxicity; assay type: cell-based; details: 100 μM Ac-DEVD-CHO
Method: Intact cytoplasmic granules were purified from YT cells, and the granule contents were isolated using known methods (Tschopp, 1994). Some of these preparations were used for the further purification of granzyme B (Tschopp, 1994). Purity of the protease was confirmed by silver staining of overloaded SDS-polyacrylamide gels. The cytotoxic effects of YT granule contents were determined as follows: Jurkat T cells or K562 cells were radiolabeled with 100 μCi/ml [^51Cr] sodium chromate, washed, resuspended in Ca^2+-free HBSS, and then incubated with granule contents (0-5 μl) and 1 mM CaCl2 for increasing times. The percentage specific [^51Cr] was calculated using the following formula: % specific lysis=[(sample cpm−spontaneous cpm)/(maximum cpm−spontaneous cpm)]×100. […] Aliquots containing 3.4×10^5 cells were incubated for a further 90 min at 37° C. with 1 mM EDTA or 1 mM Ca^2+ and 2 μl of YT granule contents (which induces 20-40% specific chromium release in 60 min, and characteristic internucleosomal DNA degradation. The total reaction volume of each sample was 30 μl. The reactions were terminated by boiling in SDS gel buffer and samples were electrophoresed and immunoblotted as described above. Experiments were performed using 2 different preparations of granule contents and 4 different cell types (K562, Jurkat, HeLa, primary human myoblasts).

HeLa cells = test: Confocal immunofluorescence of morphologic changes in HeLa cells exposed to YT cell granule contents; assay type: cell-based; details: 100 μM Ac-DEVD-CHO
Method: Morphologic experiments were performed on HeLa cells grown on No. 1 glass coverslips. […] 25 μl of HBSS containing 2 mM CaCl2 was then added to each coverslip (mixed well by repeated, gentle aspiration), followed by incubation in a humidified chamber at 37° C. for 60 min. […] Coverslips were mounted on glass slides with Permafluor (Lipshaw, Pittsburgh, Pa.), and confocal microscopy was performed on a scanning confocal microscopy system (LSM 410, Carl Zeiss, Inc., Thornwood, N.J.).

[1] = tested on: K562 erythroleukemia cells; test: Substrate cleavage in Fas-negative K562 target cells attacked by LAK cells; assay type: cell-based
Method: LAK cells were obtained by culturing human PBMCs for 4 days in LAK medium (RPMI supplemented with 10 mM Hepes pH 7.4, L-glutamine, 2% autologous plasma), and 1000 Cetus units/ml of hrIL-2 (Chiron Therapeutics, Emeryville, Calif.) (Topalian et al., 1989). […] After 2 washes with PD, cells were lysed and boiled in SDS sample buffer, and PARP, DNA-PKcs and NuMA were assayed by immunoblotting as described above.

[2] = tested on: endogenous DNA-PKcs, NuMA and PARP in HeLa cell lysates; test: Cleavage of endogenous substrates in HeLa lysates after adding purified granzyme B, with caspase inhibitors; assay type: biochemical; details: for cleavage of PARP: inhibitor added 15 minutes prior to 12.5 nM granzyme B, 100 nM Ac-DEVD-CHO or 2 mM iodoacetamide
Method: (§1) Control HeLa lysates were prepared using methods commonly applied in the art, as described in Casciola-Rosen et al., 1994. […] The mixtures were incubated for 15 mn on ice to facilitate binding of the inhibitors to proteases prior to performing cleavage reactions at 37° C. for 60 min. After electrophoresing the samples on 10% SDS-polyacrylamide gels containing 0.087% bisacrylamide, the intact proteins and their cleaved fragments were visualized by immunoblotting.

caspase-7 = molecular target: T2, caspase-7 (Homo sapiens, UniProt P55210); details: cited from earlier work
T2 sequence (P55210 24-198 limits assumed): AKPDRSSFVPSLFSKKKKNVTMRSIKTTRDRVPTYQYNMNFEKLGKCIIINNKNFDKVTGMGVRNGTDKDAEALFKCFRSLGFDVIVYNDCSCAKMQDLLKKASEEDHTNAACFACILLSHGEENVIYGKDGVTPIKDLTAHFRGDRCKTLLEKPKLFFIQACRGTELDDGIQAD
T2 sequence (P55210 207-303 limits assumed): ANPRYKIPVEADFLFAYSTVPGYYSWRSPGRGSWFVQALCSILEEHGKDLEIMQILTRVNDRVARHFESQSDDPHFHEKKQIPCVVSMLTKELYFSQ

caspase-3 [3] = molecular target: T3, caspase-3 (Homo sapiens, UniProt P42574); details: cited from earlier work
T3 construct: made in house
T3 sequence (P42574 29-175 limits assumed): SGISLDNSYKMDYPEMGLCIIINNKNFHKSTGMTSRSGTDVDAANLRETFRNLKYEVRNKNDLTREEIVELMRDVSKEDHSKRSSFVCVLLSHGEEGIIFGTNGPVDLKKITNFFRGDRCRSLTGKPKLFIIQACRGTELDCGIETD
T3 sequence (P42574 176-277 limits assumed): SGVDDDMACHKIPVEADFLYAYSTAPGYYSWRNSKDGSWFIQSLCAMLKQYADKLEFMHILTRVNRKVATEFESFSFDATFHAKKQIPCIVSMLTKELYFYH

caspase-1 = molecular target: T4, caspase-1 (Homo sapiens, UniProt P29466); details: cited from earlier work
T4 sequence (P29466 120-297 limits assumed): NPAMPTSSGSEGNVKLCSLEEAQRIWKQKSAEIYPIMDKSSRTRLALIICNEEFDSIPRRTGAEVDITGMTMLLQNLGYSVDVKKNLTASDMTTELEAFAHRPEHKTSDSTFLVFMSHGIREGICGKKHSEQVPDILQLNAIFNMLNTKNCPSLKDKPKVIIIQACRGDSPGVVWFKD
T4 sequence (P29466 317-404 limits assumed): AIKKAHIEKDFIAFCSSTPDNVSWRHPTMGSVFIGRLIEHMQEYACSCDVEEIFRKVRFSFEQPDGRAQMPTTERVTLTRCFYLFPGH

caspase-3 [4] = molecular target: T3, caspase-3; test: Cleavage of endogenous substrates in HeLa lysates by added purified caspase-3, with inhibitors; assay type: biochemical; details: 100 nM inhibitor, HeLa lysate, 105 pM caspase-3, 37° C. 60 min
Method: as §1

caspase-10 = molecular target: T5, caspase-10 (Homo sapiens, UniProt Q92851); details: cited from earlier work
T5 sequence (Q92851 220-415 limits assumed): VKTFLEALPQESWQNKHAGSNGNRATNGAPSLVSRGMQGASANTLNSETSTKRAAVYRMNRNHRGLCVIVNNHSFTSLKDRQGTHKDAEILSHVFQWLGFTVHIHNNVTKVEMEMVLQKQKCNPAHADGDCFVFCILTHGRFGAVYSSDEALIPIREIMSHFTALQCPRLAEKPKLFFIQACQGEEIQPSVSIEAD
T5 sequence (Q92851 416-521 limits assumed): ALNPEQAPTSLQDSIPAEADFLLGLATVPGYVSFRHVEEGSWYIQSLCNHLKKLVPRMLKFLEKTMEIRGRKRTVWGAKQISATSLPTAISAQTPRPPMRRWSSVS

[5] = 100 μM Ac-DEVD-CHO, LAK:K562 5:1

Chain of caspase-8 (Q14790 217-374 limits assumed, species assumed): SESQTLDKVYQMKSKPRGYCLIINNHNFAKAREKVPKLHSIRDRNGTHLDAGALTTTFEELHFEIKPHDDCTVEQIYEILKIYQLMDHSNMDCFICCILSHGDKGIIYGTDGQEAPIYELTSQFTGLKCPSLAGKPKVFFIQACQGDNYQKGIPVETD
Chain of caspase-8 (Q14790 385-479 limits assumed, species assumed): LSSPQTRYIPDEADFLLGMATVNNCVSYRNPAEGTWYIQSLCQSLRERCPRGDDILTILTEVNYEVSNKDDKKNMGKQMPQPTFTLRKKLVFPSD
T1 sequence (P10144 21-247): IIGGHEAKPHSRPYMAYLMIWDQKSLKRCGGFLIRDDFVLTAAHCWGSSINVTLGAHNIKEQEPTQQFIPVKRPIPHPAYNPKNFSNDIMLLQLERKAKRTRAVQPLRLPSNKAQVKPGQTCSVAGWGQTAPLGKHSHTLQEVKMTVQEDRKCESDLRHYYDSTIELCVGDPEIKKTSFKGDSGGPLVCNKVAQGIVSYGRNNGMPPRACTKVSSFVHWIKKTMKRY

Compound: Ku-70: autoantigen
- susceptibility to cleavage by granzyme B (granzyme B): efficiently cleaved
- cleavage by caspase-8 (caspase-8): No cleavage

Compound: poly(ADP-ribose)polymerase [PARP]
- susceptibility to cleavage by granzyme B (granzyme B): efficiently cleaved
- cleavage by caspase-8 (caspase-8): No cleavage

Compound: N-(N-Ac-Asp-Glu-Val)-3-amino-4-oxobutanoic acid [Ac-DEVD-CHO]
- generation of 150 kDa and 120 kDa DNA-PKcs fragments (K562 cells; YT granule contents): entirely inhibited
- generation of the 89 kDa PARP fragment (K562 cells; YT granule contents plus Ca2+): completely inhibited
- production of granzyme B-specific cleavage fragments of DNA-PKcs and NuMA (K562 cells; YT granule contents plus Ca2+): not inhibited
- granule content-induced surface blebbing, nuclear fragmentation, apoptotic bodies, redistribution of nuclear autoantigens (HeLa cells): prevented
- 100 kDa granzyme B-specific fragment of DNA-PKcs [1, 5]: insensitive
- inhibition of generation of caspase-3-specific fragments of DNA-PKcs [1, 5]: > 90%
- PARP cleavage ([1]; 100 μM Ac-DEVD-CHO, LAK:K562 5:1, 4 h): entirely abolished
- cleavage of PMS1 ([1]; intact cell killing by LAK cells, Ac-DEVD-CHO added): unaffected
- cleavage of PARP [2]: almost entirely abolished
- generation of caspase-3-specific fragments of NuMA (185 kDa) and DNA-PKcs (150 kDa C-terminal) ([2]; inhibitor added prior to granzyme B): abolished

Compound: nuclear mitotic apparatus protein [NuMA]
- cleavage by caspase-8 (caspase-8): No cleavage

Compound: RNA polymerase I: autoantigen
- susceptibility to cleavage by granzyme B (granzyme B): cleaved

Compound: PMS2: autoantigen
- susceptibility to cleavage by granzyme B (granzyme B): cleaved
- cleavage by caspase-8 (caspase-8): not cleaved

Compound: U1-70 kDa: autoantigen cleaved by caspases during apoptosis
- susceptibility to cleavage by granzyme B (granzyme B): efficiently cleaved
- cleavage by caspase-8 (caspase-8): No cleavage

Compound: NC(=O)CI [iodoacetamide]
- cleavage of PARP [2]: almost entirely abolished

Compound: Ro52 kDa: ribonucleoprotein autoantigen
- susceptibility to cleavage by granzyme B (granzyme B): not susceptible to cleavage

Compound: vinculin: control substrate, non-autoantigen [reference compound]
- susceptibility to cleavage by granzyme B (granzyme B): not cleaved

Compound: Ku-80: uncleaved autoantigen
- susceptibility to cleavage by granzyme B (granzyme B): uncleaved

Compound: KI-67: autoantigen
- susceptibility to cleavage by granzyme B (granzyme B): cleaved
- cleavage by caspase-8 (caspase-8): No cleavage

Compound: Ro 60k: ribonucleoprotein autoantigen
- susceptibility to cleavage by granzyme B (granzyme B): uncleaved
- susceptibility to cleavage by granzyme B (granzyme B; listed as Ro 60 kDa): not susceptible to cleavage

Compound: Topoisomerase I: autoantigen
- susceptibility to cleavage by granzyme B (granzyme B; listed as topoisomerase-1): efficiently cleaved
- cleavage by caspase-8 (caspase-8): No cleavage

Compound: N-(N-Ac-Tyr-Val-Ala)-3-amino-4-oxobutanoic acid [Ac-YVAD-CHO]
- Ki (caspase-7): > 10000 nM
- Ki (caspase-3 [3]): > 10000 nM
- Ki (caspase-1): 0.6 nM
- substrate fragments generated by the activity of caspase-3 (caspase-3 [4]): unaffected
- Ki (caspase-10): 408 nM
